Target: E. coli RNA polymerase holoenzyme Eσ^70 (His10-PPX-RNAP with σ^70) (E. coli) (UniProt P0A7Z4)
Test: native MS

stoichiometry N: 2
Substance: KorA (wild type), C-terminally His-tagged (from UniProt P03052) (natural protein)
